Experimental data: US20260242478A1 (published 2026)
“And” between values parts separate entries of the source, which are not always exact repeats. Equal entries are not always repeated. Where two headings read alike, the source gives them in different places. Where no end group is shown, it is not given here.

What was measured:
[1] = target: T1, anti-CD28 scFv (disulfide); experiment: competition ELISA, peptide titrated 0-100 uM against 0.3 nM anti-CD28 scFv (disulfide), plate-bound CD28 as competitor
T1 construct: also called Anti-CD28 scFv (VH - linker 1 - VL) Disulfide mutation: G44C, G235C

[2] = target: anti-CD28 Fab; experiment: competition ELISA, peptide titrated 0-100 uM against 1 nM anti-CD28 Fab, plate-bound CD28 as competitor
[3] = target: T2, Anti-CD28 Fab (SEQ ID NOs: 696, 697); experiment: phage binding ELISA; biotinylated anti-CD28 Fab captured on neutravidin plate, clonal phage supernatant, anti-M13 HRP detection
T2 construct: In the phage ELISA the Fab was biotinylated and captured on neutravidin coated plates

[4] = target: T2, Anti-CD28 Fab (SEQ ID NOs: 696, 697); experiment: phage binding ELISA on captured anti-CD28 Fab; wells pre-incubated with CD28 antigen as competitor
[5] = target: T3, PSMA Fab (SEQ ID NOs: 19, 20); experiment: competition ELISA, peptide titrated against 0.3 nM PSMA Fab on captured biotinylated PSMA
T3 construct: also called 006 PSMA Fab; anti-PSMA Fab

[6] = target: T3, PSMA Fab (SEQ ID NOs: 19, 20); experiment: as above; remark: listed apart in the source
[7] = target: Ab-15; experiment: binding ELISA: biotinylated peptide on neutravidin plate, Ab-15 titrated
[8] = target: Ab-15; experiment: BLI (Octet): sensor loaded with 200 nM biotinylated peptide, 100 nM Ab-15
[9] = target: Ab-15; experiment: competition ELISA: peptide titrated against 1 nM Ab-15; competitor plate-bound CD28
[10] = target: anti-CD28 Fab; experiment: BLI (Octet): biotinylated peptide on streptavidin sensor, anti-CD28 Fab titrated in solution, 1:1 model
[11] = target: T4, anti-CD28 scFv (disulfide); experiment: competition ELISA: peptide titrated (0-100 µM) with 0.3 nM anti-CD28 scFv (disulfide), binding to plate-bound CD28
T4 construct: also called Anti-CD28 scFv (VH - linker 1 - VL) Disulfide mutation: G44C, G235C

[12] = target: anti-CD28 Fab; experiment: competition ELISA: peptide titrated (0-100 µM) with 1 nM anti-CD28 Fab, binding to plate-bound CD28
[13] = target: T5, PSMA Fab (Fab biotinylated for capture on neutravidin plates (site not given)); experiment: phage ELISA: biotinylated PSMA Fab on neutravidin plate, clonal phage supernatant, anti-M13 HRP; blocking buffer alone
T5 construct: also called Anti-PSMA Fab; 006 PSMA Fab

[14] = target: T5, PSMA Fab; experiment: phage ELISA: biotinylated PSMA Fab on neutravidin plate, clonal phage supernatant, anti-M13 HRP; wells pre-incubated with PSMA antigen as competitor
[15] = target: T6, anti-CD28 scFv; experiment: BLI (Octet RED96): biotinylated peptide on streptavidin sensor, anti-CD28 scFv at 100-12.5 nM, 1:1 model
T6 construct: also called Anti-CD28 scFv (VH - linker 1 - VL)

[16] = target: anti-CD28 Fab; experiment: competition ELISA: peptide titrated (0-100 µM) with 1 nM anti-CD28 Fab, binding to plate-bound CD28; remark: listed apart in the source
[17] = target: anti-CD28 Fab; experiment: competition ELISA, peptide titrated 0-100 uM against 1 nM anti-CD28 Fab, plate-bound CD28 as competitor; remark: listed apart in the source
[18] = target: anti-CD28 Fab; experiment: as above; remark: listed apart in the source

## ACDTYFAGMINECF [Peptide-79]
[1]
  IC50: > 100 µM
[2]
  IC50: > 100 µM

## WCWDYKLWVPMTCP [Peptide-85]
[1]
  IC50: > 100 µM
[2]
  IC50: > 100 µM

## YCTGWQVAYMQNCF [Phage-1331 (Peptide-87 library sequence, SEQ ID NO: 1647)]
[3]
  Phage binding ELISA, Anti-CD28 Fab signal: 0.42
[4]
  Phage binding ELISA, Anti-CD28 Fab signal in the presence of CD28: 0.06

## LMKWCTPRWMCAAE (cysteine pairing not given here; also: biotinylated (site not given here), PSMA peptide mask (P2)) [Peptide-179]
[5]
  IC50: 4.6 µM
[6]
  IC50: 4.44 µM

## YCAGHLDEYMEKCL [Phage-1332 (Peptide-87 library sequence, SEQ ID NO: 1648)]
[3]
  Phage binding ELISA, Anti-CD28 Fab signal: 0.4
[4]
  Phage binding ELISA, Anti-CD28 Fab signal in the presence of CD28: 0.07

## YCDGHWPGYLWKCL [Phage-1330 (Peptide-87 library sequence, SEQ ID NO: 1646)]
[3]
  Phage binding ELISA, Anti-CD28 Fab signal: 0.42
[4]
  Phage binding ELISA, Anti-CD28 Fab signal in the presence of CD28: 0.06

## VPWCQIISGLECLT (cysteine pairing not given here; also: biotinylated, site not given here, CD28 peptide mask) [Peptide-73]
[7]
  EC50: 0.0549 µM
[8]
  Octet signal (200 nM peptide): 0.166
[9]
  IC50: > 100 µM

B1: Peptide-87 (peptide)
peptide: YCAGHAWQYINKCL
modifications: not fully specified; cysteine pairing not given here; also: biotinylated, site not given here
[10]
  Kd: 2.02 µM
  koff: 0.0202 s⁻¹
  kon: 10000 M⁻¹ s⁻¹
  t1/2: 36 s
[11]
  IC50: 11 µM and 14.6 µM
[12]
  IC50: 12.6 µM

B2: Peptide-114 (peptide)
peptide: YCAGHAWQYIAKCL
notes: Alanine scan variant of Peptide-87 (N11A)
[11]
  IC50: 7.09 µM
[12]
  IC50: 5.49 µM

B3: Peptide-110 (peptide)
peptide: YCAGHAAQYINKCL
notes: Alanine scan variant of Peptide-87 (W7A)
[11]
  IC50: 1.91 µM
[12]
  IC50: 3.16 µM

B4: Peptide-116 (peptide)
peptide: YCAGHAWQYINKCA
notes: Alanine scan variant of Peptide-87 (L14A)
[11]
  IC50: 76.4 µM
[12]
  IC50: 98.6 µM

B5: Peptide-111 (peptide)
peptide: YCAGHAWAYINKCL
notes: Alanine scan variant of Peptide-87 (Q8A)
[11]
  IC50: 10.5 µM
[12]
  IC50: 12.3 µM

B6: Peptide-113 (peptide)
peptide: YCAGHAWQYANKCL
notes: Alanine scan variant of Peptide-87 (I10A)
[12]
  IC50: 102 µM

## GWRQCEPVWMCSGF (peptide, not shown: large carriers, Clonal phage of the Peptide-180 library) [Phage-4011]
[13]
  phage binding ELISA signal: 0.423
[14]
  phage binding ELISA signal: 0.0672

## GYCHYWGDMVMWCG (cysteine pairing not given here; also: biotinylated, site not given here) [Peptide-12]
[15]
  Kd: 0.017 µM
  koff: 0.00167 s⁻¹
  kon: 98700 M⁻¹ s⁻¹

## SCAAGASYAWPYCL [Peptide-92]
[16]
  IC50: 7.89 µM

## ACAAGASYAWPYCL [Peptide-99]
[16]
  IC50: 21 µM
[11]
  IC50: 67 µM

## SCAAGAAYAWPYCL [Peptide-101]
[16]
  IC50: 7.42 µM
[11]
  IC50: 36.2 µM

## SCAAGASYAWPACL [Peptide-105]
[16]
  IC50: 13 µM
[11]
  IC50: 56.9 µM

## SCAAGASYAWPYCA [Peptide-106]
[16]
  IC50: 76.4 µM

## IECAYMTDQRFWCW (cysteine pairing not given here; also: biotinylated (site not given here), PSMA peptide mask (P2)) [Peptide-188]
[6]
  IC50: 7.22 µM

## IDWCPLHLWHECYH (cysteine pairing not given here; also: biotinylated, site not given here, CD28 peptide mask) [Peptide-72]
[7]
  EC50: 0.0133 µM
[8]
  Octet signal (200 nM peptide): 0.838
[9]
  IC50: 1.52 µM

## YCAGHAWQYINKCL
[1]
  IC50: > 100 µM
[2]
  IC50: 13.8 µM
[17]
  IC50: 9.76 µM
[18]
  IC50: 12.6 µM

## IYWCPIDRWNDCYN (cysteine pairing not given here; also: biotinylated, site not given here, CD28 peptide mask) [Peptide-74]
[7]
  EC50: 0.0076 µM
[8]
  Octet signal (200 nM peptide): 0.705
[9]
  IC50: 0.41 µM

## YECHQGLFHRWCVN (cysteine pairing not given here; also: biotinylated (site not given here), PSMA peptide mask (P2)) [Peptide-185]
[6]
  IC50: 23 µM

## LDWCPRHLWALCFN (cysteine pairing not given here; also: biotinylated, site not given here, CD28 peptide mask) [Peptide-70]
[7]
  EC50: 0.0082 µM
[8]
  Octet signal (200 nM peptide): 0.697
[9]
  IC50: 0.47 µM

## MRSVCVPSWMCSGF (peptide, not shown: large carriers, Clonal phage of the Peptide-180 library) [Phage-4012]
[13]
  phage binding ELISA signal: 0.422
[14]
  phage binding ELISA signal: 0.176

## MDWCPRERWVDCFF (cysteine pairing not given here; also: biotinylated, site not given here) [Peptide-9]
[15]
  Kd: 0.377 µM
  koff: 0.0123 s⁻¹
  kon: 32500 M⁻¹ s⁻¹

## YCDGHSQIYMSKCL [Phage-1329 (Peptide-87 library sequence, SEQ ID NO: 1645)]
[3]
  Phage binding ELISA, Anti-CD28 Fab signal: 0.42
[4]
  Phage binding ELISA, Anti-CD28 Fab signal in the presence of CD28: 0.06

## YCAGHASEYLQKCL [Phage-1328 (Peptide-87 library sequence, SEQ ID NO: 1644)]
[3]
  Phage binding ELISA, Anti-CD28 Fab signal: 0.43
[4]
  Phage binding ELISA, Anti-CD28 Fab signal in the presence of CD28: 0.06

## MDWCPRDLWVHCFA [Peptide-41]
[1]
  IC50: 61.5 µM
[2]
  IC50: > 100 µM

## YCDGHTWMYKQKCL [Phage-1333 (Peptide-87 library sequence, SEQ ID NO: 1649)]
[3]
  Phage binding ELISA, Anti-CD28 Fab signal: 0.4
[4]
  Phage binding ELISA, Anti-CD28 Fab signal in the presence of CD28: 0.08

## PELRCVPFWMCSFN (cysteine pairing not given here; also: biotinylated (site not given here), PSMA peptide mask (P2)) [Peptide-181]
[5]
  IC50: 26.1 µM
[6]
  IC50: 11.2 µM

## YCAGHSPINIGKCL [Peptide-84]
[1]
  IC50: > 100 µM
[2]
  IC50: 26.8 µM

## FEVRCVPTWMCAGQ (peptide, not shown: large carriers, Clonal phage of the Peptide-180 library) [Phage-4010]
[13]
  phage binding ELISA signal: 0.427
[14]
  phage binding ELISA signal: 0.069

## IAVLCQPNWMCAGF (cysteine pairing not given here; also: biotinylated (site not given here), PSMA peptide mask (P2)) [Peptide-180]
[5]
  IC50: 4.5 µM
[6]
  IC50: 4.54 µM
